This passage reports stoichiometry N results from paper PMC11411725.

The assay has as its target vCCI (viral CC chemokine inhibitor), wild type, from rabbitpox (rabbitpox), O10647. Briefly: SEC-MALS. The following applies: remark: other sources report otherwise. A general note: Size exclusion chromatography separates by hydrodynamic size, large species first.

B1: CCL17 (CC chemokine ligand 17, TARC), wild type, Q92583 24-94 (ligand)
chain: ARGTNVGRECCLEYFKGAIPLRKLKTWYQTSEDCSRDAIVFVTVQGRAICSDPNNKRVKNAVKYLQSLERS
The stoichiometry N is a count of units in the complex or per binding partner. B1 registered a stoichiometry N of 1.
